Test results: patent US20250002577A1 (ONCORESPONSE, published 2025)

Assays:
human LILRB1 on cells [1] = molecular target: T1, human LILRB1 on cells (human, UniProt Q8NHL6 24-650); test: flow cytometry, HEK293-6E transfectants
T1 construct: whole, on cells; also called hLILRB1; LILRB1-expressing 721.221 cells
Experimental: (§1) To determine that the parent chimera anti LILRB2/1 antibody specifically binds to LILRB2 and LILRB1 and not to other LILRB and LILRA family members, a cross-reactivity assay was performed. Cross-reactivity was assessed by antibody binding to transiently transfected HEK293-6E cells by flow cytometry. Binding was evaluated to HEK293-6E cells transiently transfected with human LILRB-1, -2, -3, -4, and 5 plasmids (Origene, Nos. RC219949, RC217935, RC211228, RC220932, RC206516) or to cells transiently transfected with human LILRA-1, -2, -4, -5, and -6 plasmids (Origene, Nos. RC210808, RC205626, RC220452, RC212310 RC212965). […] At a concentration of 1 μg/mL, no binding of B21A1 or the humanized variants to LILRB-3, -4, or -5 was observed (Table 7). Additionally, no binding to LILRA-1, -2, -4, -5, or -6 was observed, confirming the specificity of B21A1 and its humanized variants to LILRB1 and LILRB2 (Table 8).

human LILRB2 on cells [2] = molecular target: T2, human LILRB2 on cells (human, UniProt Q8N423 22-597); test: flow cytometry, HEK293-6E transfectants
T2 construct: whole, on cells; also called hLILRB2; LILRB2-HEK293T
Experimental: as §1

[3] = molecular target: T3, human LILRB3 on HEK293-6E cells (human, UniProt O75022 24-631); test: flow cytometry, HEK293-6E transfectants
T3 construct: whole, on cells; also called hLILRB3
Experimental: as §1

[4] = molecular target: T4, human LILRB4 on HEK293-6E cells (human, UniProt Q8NHJ6 22-448); test: flow cytometry, HEK293-6E transfectants
T4 construct: whole, on cells; also called hLILRB4
Experimental: as §1

[5] = molecular target: T5, human LILRB5 on HEK293-6E cells (human, UniProt O75023 24-590); test: flow cytometry, HEK293-6E transfectants
T5 construct: whole, on cells; also called hLILRB5
Experimental: as §1

[6] = molecular target: T6, human LILRA1 on HEK293-6E cells (human, UniProt O75019 17-489); test: flow cytometry, HEK293-6E transfectants
T6 construct: whole, on cells; also called hLILRA1
Experimental: as §1

[7] = molecular target: T7, human LILRA2 on HEK293-6E cells (human, UniProt Q8N149 24-483); test: flow cytometry, HEK293-6E transfectants
T7 construct: whole, on cells; also called hLILRA2
Experimental: as §1

[8] = molecular target: T8, human LILRA4 on HEK293-6E cells (human, UniProt P59901 24-499); test: flow cytometry, HEK293-6E transfectants
T8 construct: whole, on cells; also called hLILRA4
Experimental: as §1

[9] = molecular target: T9, human LILRA5 on HEK293-6E cells (human, UniProt A6NI73 42-299); test: flow cytometry, HEK293-6E transfectants
T9 construct: whole, on cells; also called hLILRA5
Experimental: as §1

[10] = molecular target: T10, human LILRA6 on HEK293-6E cells (human, UniProt Q6PI73 24-481); test: flow cytometry, HEK293-6E transfectants
T10 construct: whole, on cells; also called hLILRA6
Experimental: as §1

[11] = molecular target: T11, recombinant human LILRB1-His (human, UniProt Q8NHL6 24-458); test: MSD ELISA, coated antigen, purified IgG1
T11 construct: Bought protein; also called LILRB1 protein
Experimental: (§2) Recombinant human and cynomolgus LILRB1 proteins (R&D Systems, No. 8989-T2-050; ACROBiosystems, No. CDJ-C52H3) and recombinant human and cynomolgus LILRB2 proteins (ACROBiosystems, No. LI2-H5220; No. L12-C52H3) were diluted in PBS to 4 μg/mL and added to a multi-array 384-well high-binding plates (MSD, No. L21XA4) at 10 μL/well and incubated at 4° C. overnight. The plates were washed several times with Wash Buffer (0.05% Tween® 20 in PBS), using a microplate washer and then blocked with 70 μL/well of 5% BSA in PBS for 1 hour (h) at room temperature (RT) with shaking at 700 rpm. After blocking, 20 μL/well of anti-LILRB2/LILRB1 antibodies or isotype control were added to the plates, and the plates were sealed and incubated for 2 h at RT with shaking at 700 rpm. After primary antibody binding, plates were washed five times with 70 μL/well of Wash Buffer (0.05% Tween® 20 in PBS) using a microplate washer. Secondary detection antibody (SULFO-TAG™-labeled goat anti-human IgG antibody (MSD, No. R32AJ-1)) was diluted to 4 μg/mL in assay diluent (1% BSA in PBS) and 10 μL/well was added to plates and incubated at RT protected from light for 1 h, with shaking at 700 rpm. Following incubation, plates were washed five times with Wash Buffer, using a microplate washer. After removal of the final wash, 35 μL/well of MSD Gold Read Buffer B (MSD, No. R60AM-4) was added to all wells using a Multidrop combo washer/dispenser, and plates were read using MESO Sector 600MM instrument (MSD) within 5 minutes (min) after addition of Read Buffer. Signals as counts per minute (cpm) were recorded. EC₅₀ values were calculated using GraphPad Prism based on log concentration of the primary antibodies versus cpm values.

[12] = molecular target: T12, recombinant human LILRB2-His (human, UniProt Q8N423 22-461, limits assumed); test: MSD ELISA, coated antigen, purified IgG1
T12 construct: Bought protein; also called LILRB2 protein
Experimental: as §2

[13] = molecular target: T13, recombinant cynomolgus LILRB1 (cynomolgus); test: MSD ELISA, coated antigen, purified IgG1
T13 construct: Bought protein
Experimental: as §2

human LILRB1 on cells [14] = molecular target: T1, human LILRB1 on cells; test: flow cytometry, 721.221 cells, AF647-labelled antibody
Experimental: (§3) While LILRB2 expression is mostly restricted to myeloid cells, LILRB1 has a broader expression on immune cell subsets, including B cells, T cells and NK cells.
(§4) Frozen cells were removed from storage in vapor phase liquid nitrogen and thawed by gentle swirling in a water bath at 37° C., then resuspended in DMEM media with 10% FBS. Cells were placed in a 15 mL conical tube and centrifuged at 300×g for 5 min, then supernatant was removed. Cells were resuspended in DMEM+10% FBS at a cell density of 2×10⁵ cells/mL in a T75 flask for culturing, and incubated at 37° C., 5% CO₂ for 3 days before passaging. Cells were passaged when the cell density reached 1×10⁶ cell/mL. On the day of the assay, cells were centrifuged, then supernatant was removed. Cells were resuspended in Blocking Buffer B (FACS Buffer containing 10% FBS and 0.5 mg/mL human IgG1 (Athens Research, No. 16-16-090707-1M)+0.05% NaN₃, 5% (w/v)) in a 15 mL conical tube, then incubated at 4° C. for 30 min. […] Cells were incubated with antibodies at 4° C. for 1 h. Cells were washed twice in FACS Buffer (PBS containing 2 mM EDTA+1% FBS+0.05% NaN₃) and then stained with for 10 min with Zombie Violet™ fixable viability dye (BioLegend, No. 423114) at RT, washed with FACS Buffer and resuspend in 75 μL of FACS Buffer for acquisition on a BD FACSymphony™ or BD FACSCanto™ II flow cytometer (BD Biosciences), as described in Example 6.

human LILRB2 on cells [15] = molecular target: T2, human LILRB2 on cells; test: flow cytometry, LILRB2-HEK293T cells, AF647-labelled antibody
Experimental: as §3, §4

T1 sequence (Q8NHL6 24-650): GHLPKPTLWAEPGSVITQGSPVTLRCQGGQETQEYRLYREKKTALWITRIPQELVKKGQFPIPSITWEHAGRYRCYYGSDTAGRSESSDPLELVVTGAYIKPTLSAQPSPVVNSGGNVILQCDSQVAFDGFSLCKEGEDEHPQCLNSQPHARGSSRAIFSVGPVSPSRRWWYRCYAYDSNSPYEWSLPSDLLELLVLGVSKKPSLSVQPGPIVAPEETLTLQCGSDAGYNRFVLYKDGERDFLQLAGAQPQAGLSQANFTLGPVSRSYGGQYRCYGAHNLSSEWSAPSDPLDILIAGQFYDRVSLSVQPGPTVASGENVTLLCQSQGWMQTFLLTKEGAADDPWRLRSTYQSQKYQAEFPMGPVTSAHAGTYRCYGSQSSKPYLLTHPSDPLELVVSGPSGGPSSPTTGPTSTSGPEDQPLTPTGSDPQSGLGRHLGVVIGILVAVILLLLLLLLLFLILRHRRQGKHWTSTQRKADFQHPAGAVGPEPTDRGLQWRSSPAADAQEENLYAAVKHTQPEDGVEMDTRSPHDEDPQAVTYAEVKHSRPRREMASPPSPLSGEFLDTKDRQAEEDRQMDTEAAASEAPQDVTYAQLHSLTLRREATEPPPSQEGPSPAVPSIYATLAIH
T8 sequence (P59901 24-499): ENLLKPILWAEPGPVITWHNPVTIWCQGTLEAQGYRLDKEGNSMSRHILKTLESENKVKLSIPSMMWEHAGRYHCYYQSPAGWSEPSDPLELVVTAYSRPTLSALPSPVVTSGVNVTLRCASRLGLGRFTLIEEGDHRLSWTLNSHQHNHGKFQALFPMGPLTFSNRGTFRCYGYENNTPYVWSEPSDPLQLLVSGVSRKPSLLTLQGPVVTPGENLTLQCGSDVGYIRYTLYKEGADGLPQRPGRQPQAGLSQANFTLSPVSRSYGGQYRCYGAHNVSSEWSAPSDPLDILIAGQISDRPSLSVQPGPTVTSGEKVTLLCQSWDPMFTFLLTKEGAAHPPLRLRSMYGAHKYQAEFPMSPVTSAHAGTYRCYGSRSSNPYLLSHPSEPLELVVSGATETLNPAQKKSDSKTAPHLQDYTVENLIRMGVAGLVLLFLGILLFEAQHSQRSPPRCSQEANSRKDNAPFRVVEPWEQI
T9 sequence (A6NI73 42-299): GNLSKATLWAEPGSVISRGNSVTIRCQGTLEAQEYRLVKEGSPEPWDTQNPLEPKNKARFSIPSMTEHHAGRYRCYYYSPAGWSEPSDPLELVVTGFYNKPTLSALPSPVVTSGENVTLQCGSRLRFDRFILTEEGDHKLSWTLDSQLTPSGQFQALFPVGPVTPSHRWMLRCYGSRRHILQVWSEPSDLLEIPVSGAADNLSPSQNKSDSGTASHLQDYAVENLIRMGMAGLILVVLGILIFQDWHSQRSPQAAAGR
T11 sequence (Q8NHL6 24-458 limits assumed): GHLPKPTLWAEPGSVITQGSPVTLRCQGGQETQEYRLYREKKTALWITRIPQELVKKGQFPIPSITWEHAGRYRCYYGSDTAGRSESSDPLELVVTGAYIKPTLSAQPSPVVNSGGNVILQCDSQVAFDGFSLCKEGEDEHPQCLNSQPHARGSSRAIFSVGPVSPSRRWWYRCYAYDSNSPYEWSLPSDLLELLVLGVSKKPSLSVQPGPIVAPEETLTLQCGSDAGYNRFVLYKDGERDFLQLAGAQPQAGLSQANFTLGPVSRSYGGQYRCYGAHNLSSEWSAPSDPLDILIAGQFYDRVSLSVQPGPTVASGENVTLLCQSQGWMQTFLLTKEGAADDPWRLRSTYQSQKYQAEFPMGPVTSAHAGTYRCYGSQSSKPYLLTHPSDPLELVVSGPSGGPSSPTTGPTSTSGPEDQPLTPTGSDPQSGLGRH
T12 sequence (Q8N423 22-461 limits assumed): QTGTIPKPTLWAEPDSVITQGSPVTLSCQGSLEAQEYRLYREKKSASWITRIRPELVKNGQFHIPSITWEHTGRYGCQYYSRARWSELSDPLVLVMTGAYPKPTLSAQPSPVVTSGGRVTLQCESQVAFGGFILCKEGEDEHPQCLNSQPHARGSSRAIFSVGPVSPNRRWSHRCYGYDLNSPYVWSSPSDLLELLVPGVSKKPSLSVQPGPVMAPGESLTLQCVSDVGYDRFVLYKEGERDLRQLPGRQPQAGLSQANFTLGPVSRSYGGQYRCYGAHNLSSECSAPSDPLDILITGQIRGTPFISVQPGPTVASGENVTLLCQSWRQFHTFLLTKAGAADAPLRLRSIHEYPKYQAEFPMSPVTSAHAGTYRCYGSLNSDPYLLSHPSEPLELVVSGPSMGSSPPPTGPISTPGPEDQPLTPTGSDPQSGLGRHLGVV
T10 sequence (Q6PI73 24-481): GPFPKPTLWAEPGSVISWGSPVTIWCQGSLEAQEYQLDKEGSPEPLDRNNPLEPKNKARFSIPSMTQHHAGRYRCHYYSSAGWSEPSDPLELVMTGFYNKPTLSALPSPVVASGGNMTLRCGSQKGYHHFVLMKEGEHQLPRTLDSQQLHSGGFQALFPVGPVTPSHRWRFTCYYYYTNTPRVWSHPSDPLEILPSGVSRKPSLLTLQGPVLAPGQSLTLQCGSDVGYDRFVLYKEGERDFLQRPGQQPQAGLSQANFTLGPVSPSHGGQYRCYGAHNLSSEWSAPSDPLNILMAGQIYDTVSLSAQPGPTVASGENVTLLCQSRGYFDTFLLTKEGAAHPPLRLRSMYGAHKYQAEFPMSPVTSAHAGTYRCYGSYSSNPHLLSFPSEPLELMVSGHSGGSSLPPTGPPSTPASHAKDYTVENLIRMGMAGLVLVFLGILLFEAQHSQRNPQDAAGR
T2 sequence (Q8N423 22-597): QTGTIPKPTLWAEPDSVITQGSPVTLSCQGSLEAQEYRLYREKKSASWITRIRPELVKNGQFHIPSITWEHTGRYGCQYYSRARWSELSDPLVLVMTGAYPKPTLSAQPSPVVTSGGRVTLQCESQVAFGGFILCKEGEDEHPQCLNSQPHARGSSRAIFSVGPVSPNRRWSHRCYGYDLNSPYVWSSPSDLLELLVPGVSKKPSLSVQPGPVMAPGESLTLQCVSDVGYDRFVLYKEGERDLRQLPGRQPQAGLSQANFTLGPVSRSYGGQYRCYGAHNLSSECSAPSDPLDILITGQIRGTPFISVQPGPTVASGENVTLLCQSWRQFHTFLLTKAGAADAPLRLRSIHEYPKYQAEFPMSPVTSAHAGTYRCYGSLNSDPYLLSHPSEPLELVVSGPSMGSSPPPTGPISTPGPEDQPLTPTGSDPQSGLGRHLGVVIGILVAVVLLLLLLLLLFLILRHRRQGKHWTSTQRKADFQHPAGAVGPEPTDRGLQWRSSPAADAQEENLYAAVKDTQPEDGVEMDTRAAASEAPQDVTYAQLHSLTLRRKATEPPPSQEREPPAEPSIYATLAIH
T7 sequence (Q8N149 24-483): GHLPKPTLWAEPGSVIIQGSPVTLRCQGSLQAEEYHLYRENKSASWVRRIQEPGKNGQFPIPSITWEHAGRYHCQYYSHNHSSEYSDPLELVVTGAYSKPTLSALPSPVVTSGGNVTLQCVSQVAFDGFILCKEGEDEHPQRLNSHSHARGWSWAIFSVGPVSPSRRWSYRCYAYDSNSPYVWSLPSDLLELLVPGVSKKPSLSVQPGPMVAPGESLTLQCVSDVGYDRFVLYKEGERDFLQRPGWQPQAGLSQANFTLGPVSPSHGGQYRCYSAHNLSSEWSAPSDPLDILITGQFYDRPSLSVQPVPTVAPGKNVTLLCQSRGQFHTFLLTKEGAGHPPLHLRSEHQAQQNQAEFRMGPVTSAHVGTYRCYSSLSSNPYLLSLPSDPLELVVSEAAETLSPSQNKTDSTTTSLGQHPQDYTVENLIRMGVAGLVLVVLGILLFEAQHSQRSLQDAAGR
T6 sequence (O75019 17-489): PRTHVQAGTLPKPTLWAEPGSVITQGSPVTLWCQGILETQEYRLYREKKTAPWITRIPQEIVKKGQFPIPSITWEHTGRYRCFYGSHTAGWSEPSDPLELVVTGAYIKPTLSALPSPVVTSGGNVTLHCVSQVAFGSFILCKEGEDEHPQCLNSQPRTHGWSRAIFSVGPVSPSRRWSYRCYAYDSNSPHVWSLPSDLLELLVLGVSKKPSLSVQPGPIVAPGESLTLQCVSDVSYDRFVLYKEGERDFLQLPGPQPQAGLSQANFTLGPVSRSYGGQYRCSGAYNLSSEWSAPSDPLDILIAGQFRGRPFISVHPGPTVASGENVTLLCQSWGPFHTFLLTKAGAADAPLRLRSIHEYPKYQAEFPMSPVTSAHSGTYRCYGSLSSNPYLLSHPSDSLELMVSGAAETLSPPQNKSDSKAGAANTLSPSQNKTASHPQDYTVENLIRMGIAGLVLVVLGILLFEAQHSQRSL
T3 sequence (O75022 24-631): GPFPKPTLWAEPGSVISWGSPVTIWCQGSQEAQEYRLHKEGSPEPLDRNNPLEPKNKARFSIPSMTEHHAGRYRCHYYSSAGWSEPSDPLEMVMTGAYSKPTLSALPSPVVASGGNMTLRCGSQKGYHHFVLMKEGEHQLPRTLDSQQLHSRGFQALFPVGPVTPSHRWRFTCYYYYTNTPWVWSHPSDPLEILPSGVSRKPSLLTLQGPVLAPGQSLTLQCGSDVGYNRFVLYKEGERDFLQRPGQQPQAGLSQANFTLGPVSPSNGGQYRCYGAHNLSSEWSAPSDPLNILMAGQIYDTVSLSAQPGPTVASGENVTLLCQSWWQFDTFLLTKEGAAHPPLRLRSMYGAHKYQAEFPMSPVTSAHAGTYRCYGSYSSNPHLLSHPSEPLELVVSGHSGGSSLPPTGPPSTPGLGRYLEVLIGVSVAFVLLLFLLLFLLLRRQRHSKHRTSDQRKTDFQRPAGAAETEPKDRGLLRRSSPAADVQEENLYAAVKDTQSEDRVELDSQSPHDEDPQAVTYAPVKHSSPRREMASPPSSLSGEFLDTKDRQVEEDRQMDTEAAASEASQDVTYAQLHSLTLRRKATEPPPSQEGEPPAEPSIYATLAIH

B1: B21A1 (antibody, human IgG1, kappa)
heavy: not shown
light: DIVMTQTPASVEAAVGGTVTINCQASGNIYSFLAWYQQKPGQPPKLLIYTASNLETGVPSRFSGSGSGTEYTLTISGVQCDDAATYYCLGGLYSSDVSYAFGGGTEVVVKRTVAAPSVFIFPPSDEQLKSGTASVVCLLNNFYPREAKVQWKVDNALQSGNSQESVTEQDSKDSTYSLSSTLTLSKADYEKHKVYACEVTHQGLSSPVTKSFNRGEC
notes: Rabbit/human chimera, human IgG1/kappa; AF647-conjugated in the flow cytometry titrations; also called B21A1 chimera IgG1; parent B21A1
- MFI (human LILRB1 on cells [1]): 940 MFI
- MFI (human LILRB2 on cells [2]): 5380 MFI
- MFI [3]: 107 MFI
- binding result [3]: no binding (tested: 1 µg/mL)
- MFI [4]: 35.2 MFI
- binding result [4]: no binding (tested: 1 µg/mL)
- MFI [5]: 101 MFI
- binding result [5]: no binding (tested: 1 µg/mL)
- MFI [6]: 264 MFI
- binding result [6]: no binding (tested: 1 µg/mL)
- MFI [7]: 30.2 MFI
- binding result [7]: no binding (tested: 1 µg/mL)
- MFI [8]: 143 MFI
- binding result [8]: no binding (tested: 1 µg/mL)
- MFI [9]: 78.5 MFI
- binding result [9]: no binding (tested: 1 µg/mL)
- MFI [10]: 150 MFI
- binding result [10]: no binding (tested: 1 µg/mL)
- EC50 [11]: 0.0105 µg/mL
- EC50 [12]: 0.038 µg/mL
- EC50 [13]: 0.306 µg/mL
- EC50 (human LILRB1 on cells [14]): 0.0448 µg/mL
- EC50 (human LILRB2 on cells [15]): 0.0008 µg/mL

B2: B21H1-45 (antibody, human IgG1, kappa)
heavy: not shown
light: DIQMTQTPSTVEASVGGTVTITCQASGNIYSFLAWYQQKPGQPPKLLIYTASNLETGVPSRFSGSGSGTEYTLTISGLQSDDAATYYCLGGLYSSDVSYAFGGGTEVVVKRTVAAPSVFIFPPSDEQLKSGTASVVCLLNNFYPREAKVQWKVDNALQSGNSQESVTEQDSKDSTYSLSSTLTLSKADYEKHKVYACEVTHQGLSSPVTKSFNRGEC
notes: humanized IgG1/kappa, VH4+VL5
- MFI (human LILRB1 on cells [1]): 997 MFI
- MFI (human LILRB2 on cells [2]): 6680 MFI
- MFI [3]: 81 MFI
- binding result [3]: no binding (tested: 1 µg/mL)
- MFI [4]: 27.2 MFI
- binding result [4]: no binding (tested: 1 µg/mL)
- MFI [5]: 83.6 MFI
- binding result [5]: no binding (tested: 1 µg/mL)
- MFI [6]: 264 MFI
- binding result [6]: no binding (tested: 1 µg/mL)
- MFI [7]: 26.2 MFI
- binding result [7]: no binding (tested: 1 µg/mL)
- MFI [8]: 108 MFI
- binding result [8]: no binding (tested: 1 µg/mL)
- MFI [9]: 71 MFI
- binding result [9]: no binding (tested: 1 µg/mL)
- MFI [10]: 135 MFI
- binding result [10]: no binding (tested: 1 µg/mL)
- EC50 [11]: 0.0134 µg/mL
- EC50 [12]: 0.0461 µg/mL
- EC50 [13]: 0.284 µg/mL
- EC50 (human LILRB1 on cells [14]): 0.0616 µg/mL
- EC50 (human LILRB2 on cells [15]): 0.00086 µg/mL

B3: B21H1-33 (antibody, human IgG1, kappa)
heavy: not shown
light: DIVMTQSPSSVSASVGDRVTITCQASGNIYSFLAWYQQKPGKAPKLLIYTASNLETGVPSRFSGSGSGTDFTLTISSLQPEDFATYYCLGGLYSSDVSYAFGGGTKVVIKRTVAAPSVFIFPPSDEQLKSGTASVVCLLNNFYPREAKVQWKVDNALQSGNSQESVTEQDSKDSTYSLSSTLTLSKADYEKHKVYACEVTHQGLSSPVTKSFNRGEC
notes: humanized IgG1/kappa, VH3+VL3
- MFI (human LILRB1 on cells [1]): 860 MFI
- MFI (human LILRB2 on cells [2]): 6290 MFI
- MFI [3]: 89.2 MFI
- binding result [3]: no binding (tested: 1 µg/mL)
- MFI [4]: 27.4 MFI
- binding result [4]: no binding (tested: 1 µg/mL)
- MFI [5]: 85.8 MFI
- binding result [5]: no binding (tested: 1 µg/mL)
- MFI [6]: 204 MFI
- binding result [6]: no binding (tested: 1 µg/mL)
- MFI [7]: 25.9 MFI
- binding result [7]: no binding (tested: 1 µg/mL)
- MFI [8]: 112 MFI
- binding result [8]: no binding (tested: 1 µg/mL)
- MFI [9]: 73.1 MFI
- binding result [9]: no binding (tested: 1 µg/mL)
- MFI [10]: 140 MFI
- binding result [10]: no binding (tested: 1 µg/mL)
- EC50 [11]: 0.00616 µg/mL
- EC50 [12]: 0.0225 µg/mL
- EC50 [13]: 5.85 µg/mL
- EC50 (human LILRB2 on cells [15]): 0.00144 µg/mL

B4: B21H1-12 (antibody, human IgG1, kappa)
heavy: not shown
light: DIQMTQSPSSLSASVGDRVTITCQASGNIYSFLAWYQQKPGKVPKLLIYTASNLETGVPSRFSGSGSGTDYTLTISSLQSEDAATYYCLGGLYSSDVSYAFGGGTKVVIKRTVAAPSVFIFPPSDEQLKSGTASVVCLLNNFYPREAKVQWKVDNALQSGNSQESVTEQDSKDSTYSLSSTLTLSKADYEKHKVYACEVTHQGLSSPVTKSFNRGEC
notes: humanized IgG1/kappa, VH1+VL2
- MFI (human LILRB1 on cells [1]): 963 MFI
- MFI (human LILRB2 on cells [2]): 6210 MFI
- MFI [3]: 82.2 MFI
- binding result [3]: no binding (tested: 1 µg/mL)
- MFI [4]: 27.3 MFI
- binding result [4]: no binding (tested: 1 µg/mL)
- MFI [5]: 87.8 MFI
- binding result [5]: no binding (tested: 1 µg/mL)
- MFI [6]: 276 MFI
- binding result [6]: no binding (tested: 1 µg/mL)
- MFI [7]: 26.6 MFI
- binding result [7]: no binding (tested: 1 µg/mL)
- MFI [8]: 112 MFI
- binding result [8]: no binding (tested: 1 µg/mL)
- MFI [9]: 72.8 MFI
- binding result [9]: no binding (tested: 1 µg/mL)
- MFI [10]: 151 MFI
- binding result [10]: no binding (tested: 1 µg/mL)
- EC50 [11]: 0.00614 µg/mL
- EC50 [12]: 0.0174 µg/mL
- EC50 (human LILRB1 on cells [14]): 0.0417 µg/mL
- EC50 (human LILRB2 on cells [15]): 0.00102 µg/mL
